From patent US20260242478A1 (published 2026)
Where no end group is shown, it is not given here.

B1: Phage-497 (peptide, not shown: large carriers)
peptide: YCEGHAPEYIGKCL
notes: Clonal phage of the Peptide-87 optimisation library, tested as crude supernatant
B2: Phage-495 (peptide, not shown: large carriers)
peptide: YCEGHLPEYIQKCL
notes: as for B1
B3: Phage-496 (peptide, not shown: large carriers)
peptide: YCEGHLPEYIWKCL
notes: as for B1
B4: Peptide-204 (peptide)
peptide: QCTWNEKTWWMECE
modifications: cysteine pairing not given here; also: biotinylated (site not given here)
notes: PSMA peptide mask (P2)
B5: Peptide-205 (peptide)
peptide: MCQWDKINYWMDCD
modifications: cysteine pairing not given here; also: biotinylated (site not given here)
notes: PSMA peptide mask (P2)
B6: Phage-486 (peptide, not shown: large carriers)
peptide: YCEGHLPEYLGKCL
notes: as for B1
B7: Phage-488 (peptide, not shown: large carriers)
peptide: YCEGHLPEYLAKCL
notes: as for B1
B8: Peptide-207 (peptide)
peptide: DCHWNKATWWMDCE
modifications: cysteine pairing not given here; also: biotinylated, site not given here
notes: PSMA peptide mask (P2)
B9: Phage-494 (peptide, not shown: large carriers)
peptide: YCEGHLPEYLEKCV
notes: as for B1
B10: Phage-26 (peptide, not shown: large carriers)
peptide: MDWCPRDLWHECFA
modifications: cysteine pairing not given here; also: phage-displayed pIII fusion, pIII and linker not given here
notes: Clonal phage supernatant
B11: Peptide-209 (peptide)
peptide: QCVWDRGTWWMACD
modifications: cysteine pairing not given here; also: biotinylated, site not given here
notes: PSMA peptide mask (P2)
B12: Peptide-203 (peptide)
peptide: QCVWDNFNYWMDCD
modifications: cysteine pairing not given here; also: biotinylated (site not given here)
notes: PSMA peptide mask (P2)
B13: Phage-34 (peptide, not shown: large carriers)
peptide: MDWCPRHMWNYCFA
modifications: cysteine pairing not given here; also: displayed on phage as fusion to pIII, linker and pIII sequence not given here
notes: Clonal phage supernatant
B14: Phage-33 (peptide, not shown: large carriers)
peptide: MDWCPRFMWDECFN
notes: Clonal phage supernatant
B15: Phage-492 (peptide, not shown: large carriers)
peptide: YCWSHSPPFIKKCY
notes: as for B1
B16: Phage-491 (peptide, not shown: large carriers)
peptide: HCSGHHWLQVWKCF
notes: as for B1
B17: Phage-490 (peptide, not shown: large carriers)
peptide: YCEGHSSEYIQKCL
notes: as for B1
B18: Phage-498 (peptide, not shown: large carriers)
peptide: YCDGHSPIYMWKCL
notes: as for B1
B19: Phage-489 (peptide, not shown: large carriers)
peptide: YCEGHSQEYLWKCL
notes: as for B1
B20: Peptide-212 (peptide)
peptide: HCKFHDYHSWYVCY
modifications: cysteine pairing not given here; also: biotinylated, site not given here
notes: PSMA peptide mask (P2)
B21: Phage-487 (peptide, not shown: large carriers)
peptide: YCEGHLPEYREKCL
notes: as for B1
B22: Phage-493 (peptide, not shown: large carriers)
peptide: YCEGHLPEYRNKCL
notes: as for B1
B23: Peptide-202 (peptide)
peptide: MCQWDELNYWMDCD
modifications: cysteine pairing not given here; also: biotinylated (site not given here)
notes: PSMA peptide mask (P2)
B24: Peptide-206 (peptide)
peptide: QCVWDLTNYWMNCD
modifications: cysteine pairing not given here; also: biotinylated (site not given here)
notes: PSMA peptide mask (P2)
B25: Peptide-195 (peptide)
peptide: QLPCHYWGEWCPQA
modifications: cysteine pairing not given here; also: biotinylated (site not given here)
notes: PSMA peptide mask (P2)
B26: Peptide-200 (peptide)
peptide: ILPCHWYTSDCPQH
modifications: cysteine pairing not given here; also: biotinylated (site not given here)
notes: PSMA peptide mask (P2)
B27: Peptide-194 (peptide)
peptide: SKLLCVPPWMCYHV
modifications: cysteine pairing not given here; also: biotinylated (site not given here)
notes: PSMA peptide mask (P2)
B28: Peptide-198 (peptide)
peptide: LTRCVPDWMCYRAV
modifications: cysteine pairing not given here; also: biotinylated (site not given here)
notes: PSMA peptide mask (P2)
B29: Phage-499 (peptide, not shown: large carriers)
peptide: YCEGHAPEYMAKCL
notes: as for B1

Assays:
[1] = biological target: T1, Anti-CD28 Fab (SEQ ID NOs: 696, 697); test: phage binding ELISA; biotinylated anti-CD28 Fab on neutravidin plate, clonal phage supernatant, anti-M13 HRP detection
T1 construct: Biotinylated and captured on neutravidin coated plates in the phage ELISA
T1 sequence (VH, as listed by the source, chain 1 of 2): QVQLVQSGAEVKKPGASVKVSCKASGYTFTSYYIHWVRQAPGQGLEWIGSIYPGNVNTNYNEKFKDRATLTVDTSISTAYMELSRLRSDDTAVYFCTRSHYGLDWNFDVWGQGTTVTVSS
T1 sequence (VL, as listed by the source, chain 2 of 2): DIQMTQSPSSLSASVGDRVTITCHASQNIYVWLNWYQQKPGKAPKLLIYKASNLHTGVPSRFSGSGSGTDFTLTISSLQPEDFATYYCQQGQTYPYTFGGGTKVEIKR

[2] = biological target: T1, Anti-CD28 Fab (SEQ ID NOs: 696, 697); test: phage binding ELISA; Fab-coated wells pre-incubated with CD28 antigen as competitor, anti-M13 HRP detection;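 note: crude clonal phage supernatants from panned colonies added to wells after blocking buffer plus CD28 treatment, bound phage measured after a brief incubation and washing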
Protocol: After panning, phage infected bacteria were plated out and colonies picked into 96 well blocks. Clonal phage was then amplified and separated from bacterial cells via centrifugation.
Clonal phage were harvested as crude supematants and screened via standard ELISAs. […] Prior to the addition of clonal phage, wells were incubated with blocking buffer and CD28 antigen or blocking buffer alone. Without washing or aspirating, clonal phage supematants were then added to the wells and incubated for a short time. Wells were then washed followed by detection of bound phage using a horse radish conjugated anti-M13 antibody. Clonal phage of interest were then sent for sequence analysis.

[3] = biological target: T2, PSMA Fab (SEQ ID NOs: 19, 20); test: competition ELISA, peptide titrated against 0.3 nM PSMA Fab on captured biotinylated PSMA
T2 construct: also called 006 PSMA Fab; anti-PSMA Fab
Protocol: The concentration of peptide required to reduce the maximum signal by 50% (IC₅₀) was calculated in Graphpad Prism software.

[4] = biological target: T3, anti-CD28 scFv (VH - linker 1 - VL) (biotinylated (site not stated)); test: same phage ELISA, wells pre-incubated with soluble CD28 (competitor)
T3 sequence (scFv, as listed by the source): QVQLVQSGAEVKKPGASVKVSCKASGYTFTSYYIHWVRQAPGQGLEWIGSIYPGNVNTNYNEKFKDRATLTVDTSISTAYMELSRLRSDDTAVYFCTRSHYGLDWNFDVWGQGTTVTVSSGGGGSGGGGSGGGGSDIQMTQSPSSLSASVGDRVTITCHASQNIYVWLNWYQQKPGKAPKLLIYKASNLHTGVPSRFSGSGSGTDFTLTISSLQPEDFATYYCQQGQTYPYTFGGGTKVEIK

[5] = biological target: T3, anti-CD28 scFv (VH - linker 1 - VL); test: phage ELISA; biotinylated anti-CD28 scFv on neutravidin plate, clonal phage supernatant, anti-M13-HRP detection;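 note: before phage addition, wells were pretreated with soluble CD28 protein in blocking buffer, or with blocking buffer only as the comparison, then phage were added without washing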

Binder	Anti-CD28 Fab signal (phage binding ELISA) [1]	Anti-CD28 Fab signal in the presence of CD28 (phage binding ELISA) [2]	IC50 [3]	also measured
B1	2.1	0.07	–	–
B2	1.9	0.08	–	–
B3	2.32	0.09	–	–
B4	–	–	9.07 µM	–
B5	–	–	5.52 µM	–
B6	1.23	0.08	–	–
B7	2.34	0.1	–	–
B8	–	–	9.86 µM	–
B9	2.11	0.06	–	–
B10	–	–	–	CD28 scFv signal in presence of CD28 [4]: 0.277; CD28 scFv signal [5]: 2.71
B11	–	–	10.2 µM	–
B12	–	–	36.1 µM	–
B13	–	–	–	CD28 scFv signal in presence of CD28 [4]: 0.242; CD28 scFv signal [5]: 2.71
B14	–	–	–	CD28 scFv signal in presence of CD28 [4]: 0.256; CD28 scFv signal [5]: 2.68
B15	2.06	0.06	–	–
B16	2.31	0.07	–	–
B17	2.25	0.1	–	–
B18	2.47	0.09	–	–
B19	2.36	0.07	–	–
B20	–	–	6.39 µM	–
B21	1.96	0.07	–	–
B22	2.38	0.17	–	–
B23	–	–	11 µM	–
B24	–	–	28.7 µM	–
B25	–	–	19.3 µM	–
B26	–	–	12.2 µM	–
B27	–	–	10.3 µM	–
B28	–	–	18.9 µM	–
B29	2.47	0.08	–	–
